In paper PMC5872582:

Target: L1 ORF1p-T7 (T7-tagged ORF1 protein expressed from the L1 construct pAD2TE1) (human) (UniProt Q9UN81)
Assay: co-IP; 293T cells cotransfected with pAD2TE1 and the partner; lysis 48 h posttransfection in 160 mM NaCl, 50 mM Tris-HCl pH 7.5, 1 mM EDTA, […] NP-40 with RNaseOUT; ORF1p-T7 precipitated with anti-T7 monoclonal antibody on magnetic beads; immunoblot; signals normalized on T7 signal in IP and myc signal in WCL

Sequence of UniProt Q9UN81 (Q9UN81 whole entry): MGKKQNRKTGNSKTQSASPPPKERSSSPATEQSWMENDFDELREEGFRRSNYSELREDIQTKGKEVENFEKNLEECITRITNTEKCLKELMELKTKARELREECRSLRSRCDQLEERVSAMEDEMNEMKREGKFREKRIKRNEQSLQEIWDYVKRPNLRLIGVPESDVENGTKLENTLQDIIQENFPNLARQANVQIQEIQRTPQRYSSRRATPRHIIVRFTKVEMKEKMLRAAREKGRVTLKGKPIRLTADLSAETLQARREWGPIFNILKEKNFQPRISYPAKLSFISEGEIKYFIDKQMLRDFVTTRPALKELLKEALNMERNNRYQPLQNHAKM

Row | normalized densitometric intensity of the co-precipitated band [%] | Substance
1 | 24 | human SAMHD1 T592D, myc-tagged (from UniProt Q9Y3Z3 1-626) (natural protein)
2 | 100 | human SAMHD1 T592A, myc-tagged (from UniProt Q9Y3Z3 1-626) (natural protein)
